Reference: publication PMC9935876, “Structure of the planar cell polarity cadherins Fat4 and Dachsous1” (Nature Communications, 2023)
Where “and” joins values, the source holds several entries; their conditions need not be identical. Identical values can stand only once. Like-named read-outs stand apart in the source and are kept apart here. Each block holds one binder with its values, some of them ahead of it.

Legend:
[1] = biological target: T1, Human Fat4(EC1-4) (human, UniProt Q6V0I7 43-475); test: ITC; MicroCal ITC200; Fat4 construct 30 µM in the sample cell, Dchs1 construct 300 µM as titrant; 20 °C; fitted with one set of sites; two independent experiments; conditions: both partners purified
T1 construct: Fat4, human, EC1-EC4, aa43-475; Tags were cleaved only for the constructs meant for co-crystallisation; nothing is said for ITC; also called Fat4 EC1–EC4
T1 sequence: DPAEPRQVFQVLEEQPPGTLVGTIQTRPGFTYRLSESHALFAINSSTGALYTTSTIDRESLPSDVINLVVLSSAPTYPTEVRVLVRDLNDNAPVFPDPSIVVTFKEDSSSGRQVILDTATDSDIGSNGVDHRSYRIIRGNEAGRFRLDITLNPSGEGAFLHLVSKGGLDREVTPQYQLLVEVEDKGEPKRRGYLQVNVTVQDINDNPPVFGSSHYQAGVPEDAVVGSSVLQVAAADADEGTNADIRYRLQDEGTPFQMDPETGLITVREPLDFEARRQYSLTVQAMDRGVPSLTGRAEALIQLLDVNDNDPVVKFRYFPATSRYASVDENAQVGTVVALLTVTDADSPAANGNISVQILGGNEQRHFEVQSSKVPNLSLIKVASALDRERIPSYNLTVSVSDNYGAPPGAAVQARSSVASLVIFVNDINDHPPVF

[2] = biological target: T2, human Fat4(EC1–4) (human, UniProt Q6V0I7 43-475); test: ITC; MicroCal ITC200; Fat4 constructs at 30 µM in the sample cell, Dchs1 constructs at 300 µM as titrants; 20 °C; one set of sites; conditions: both partners purified
T2 construct: human Fat4, EC1–EC4, aa43–475; Form used in ITC; also called wild type Fat4(EC1–4)
T2 sequence: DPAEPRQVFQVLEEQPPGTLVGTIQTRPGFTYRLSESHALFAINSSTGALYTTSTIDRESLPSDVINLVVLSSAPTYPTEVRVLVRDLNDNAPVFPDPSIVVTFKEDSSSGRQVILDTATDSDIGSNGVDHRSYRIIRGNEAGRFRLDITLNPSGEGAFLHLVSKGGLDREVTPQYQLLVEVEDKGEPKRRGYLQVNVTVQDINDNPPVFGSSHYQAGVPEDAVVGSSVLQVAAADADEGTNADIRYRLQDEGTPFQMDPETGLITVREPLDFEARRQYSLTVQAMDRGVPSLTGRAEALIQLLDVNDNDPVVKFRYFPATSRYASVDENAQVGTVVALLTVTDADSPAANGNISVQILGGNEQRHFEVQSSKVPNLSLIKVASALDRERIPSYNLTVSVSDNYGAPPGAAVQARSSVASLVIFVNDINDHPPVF

[3] = biological target: T3, Human Fat4(EC1-4) R152A (human, UniProt Q6V0I7 43-475, R152A); test: as above
T3 construct: human Fat4, EC1-EC4, aa43-475, with R152A in EC2; also called Fat4R152A(EC1-4); Fat4R152A
T3 sequence: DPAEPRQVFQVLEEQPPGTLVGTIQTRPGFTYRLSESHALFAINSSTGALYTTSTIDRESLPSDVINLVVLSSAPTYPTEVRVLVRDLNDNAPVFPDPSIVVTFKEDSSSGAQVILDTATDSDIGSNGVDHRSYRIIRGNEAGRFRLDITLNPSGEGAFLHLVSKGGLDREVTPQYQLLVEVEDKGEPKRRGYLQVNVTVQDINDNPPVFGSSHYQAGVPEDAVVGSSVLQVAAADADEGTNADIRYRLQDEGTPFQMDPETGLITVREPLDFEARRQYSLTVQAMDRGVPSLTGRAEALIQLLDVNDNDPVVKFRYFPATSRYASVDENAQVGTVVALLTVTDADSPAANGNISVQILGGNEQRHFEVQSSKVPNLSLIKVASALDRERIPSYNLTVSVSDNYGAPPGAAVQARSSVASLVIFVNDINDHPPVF

[4] = biological target: Human Fat4R152A(EC1-4) (human) (UniProt Q6V0I7); test: ITC; MicroCal ITC200; Fat4 construct 30 µM in the sample cell, Dchs1 construct 300 µM as titrant; 20 °C; fitted with one set of sites; two independent experiments
[5] = biological target: T4, Human Fat4(EC1-4) (human, UniProt Q6V0I7 43-475); test: ITC; MicroCal ITC200; Fat4 constructs 30 µM in the sample cell, Dchs1 constructs 300 µM as titrants; 20 °C; one set of sites; conditions: both partners purified
T4 construct: human Fat4, extracellular cadherin domains EC1-EC4, aa43-475; A 3C protease site stands between the protein and the C-terminal BAP-tag and His6; also called WT
T4 sequence: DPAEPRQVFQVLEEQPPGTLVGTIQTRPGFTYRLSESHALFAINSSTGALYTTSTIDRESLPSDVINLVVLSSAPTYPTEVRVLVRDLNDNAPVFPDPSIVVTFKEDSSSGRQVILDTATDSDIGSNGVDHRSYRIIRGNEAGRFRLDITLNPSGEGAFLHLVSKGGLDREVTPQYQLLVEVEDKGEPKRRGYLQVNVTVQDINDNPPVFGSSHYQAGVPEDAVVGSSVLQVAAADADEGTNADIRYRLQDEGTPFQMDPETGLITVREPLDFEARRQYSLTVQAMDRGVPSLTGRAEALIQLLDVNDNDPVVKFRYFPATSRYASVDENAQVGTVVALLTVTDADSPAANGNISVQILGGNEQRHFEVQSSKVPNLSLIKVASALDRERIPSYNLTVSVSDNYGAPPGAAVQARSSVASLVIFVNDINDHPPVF

Kd [1]: 0.98 µM and 0.97 µM
B1: Human Dchs1(EC1-3) (domain or fragment)
chain: DPQAGSLDLQIDEEQPAGTLIGDISAGLPAGTAAPLMYFISAQEGSGVGTDLAIDEHSGVVRTARVLDREQRDRYRFTAVTPDGATVEVTVRVADINDHAPAFPQARAALQVPEHTAFGTRYPLEPARDADAGRLGTQGYALSGDGAGETFRLETRPGPDGTPVPELVVTGELDRENRSHYMLQLEAYDGGSPPRRAQALLDVTLLDINDHAPAFNQSRYHAVVSESLAPGSPVLQVFASDADAGVNGAVTYEINRRQSEGDGPFSIDAHTGLLQLERPLDFEQRRVHELVVQARDGGAHPELGSAFVTVHVRDANDNQPSM
notes: Dchs1 (Dachsous1), human, EC1-EC3, aa43-362

Kd [2]: 0.98 ± 0.12 µM
B2: human Dchs1(EC1–3) (domain or fragment)
chain: DPQAGSLDLQIDEEQPAGTLIGDISAGLPAGTAAPLMYFISAQEGSGVGTDLAIDEHSGVVRTARVLDREQRDRYRFTAVTPDGATVEVTVRVADINDHAPAFPQARAALQVPEHTAFGTRYPLEPARDADAGRLGTQGYALSGDGAGETFRLETRPGPDGTPVPELVVTGELDRENRSHYMLQLEAYDGGSPPRRAQALLDVTLLDINDHAPAFNQSRYHAVVSESLAPGSPVLQVFASDADAGVNGAVTYEINRRQSEGDGPFSIDAHTGLLQLERPLDFEQRRVHELVVQARDGGAHPELGSAFVTVHVRDANDNQPSM
notes: human Dchs1, EC1–EC3, aa43–362; Form used in ITC; also called wild type Dchs1(EC1–3)

fold decrease in binding affinity against wild type [3]: 9 fold
B3: human Dchs1(EC1–4) (domain or fragment)
chain: DPQAGSLDLQIDEEQPAGTLIGDISAGLPAGTAAPLMYFISAQEGSGVGTDLAIDEHSGVVRTARVLDREQRDRYRFTAVTPDGATVEVTVRVADINDHAPAFPQARAALQVPEHTAFGTRYPLEPARDADAGRLGTQGYALSGDGAGETFRLETRPGPDGTPVPELVVTGELDRENRSHYMLQLEAYDGGSPPRRAQALLDVTLLDINDHAPAFNQSRYHAVVSESLAPGSPVLQVFASDADAGVNGAVTYEINRRQSEGDGPFSIDAHTGLLQLERPLDFEQRRVHELVVQARDGGAHPELGSAFVTVHVRDANDNQPSMTVIFLSADGSPQVSEAAPPGQLVARISVSDPDDGDFAHVNVSLEGGEGHFALSTQDSVIYLVCVARRLDREERDAYNLRVTATDSGSPPLRAEAAFVLHVTDVNDNAPAF

Kd [2]: 0.47 ± 0.13 µM
B4: human Dchs1(EC1–4) (domain or fragment)
chain: DPQAGSLDLQIDEEQPAGTLIGDISAGLPAGTAAPLMYFISAQEGSGVGTDLAIDEHSGVVRTARVLDREQRDRYRFTAVTPDGATVEVTVRVADINDHAPAFPQARAALQVPEHTAFGTRYPLEPARDADAGRLGTQGYALSGDGAGETFRLETRPGPDGTPVPELVVTGELDRENRSHYMLQLEAYDGGSPPRRAQALLDVTLLDINDHAPAFNQSRYHAVVSESLAPGSPVLQVFASDADAGVNGAVTYEINRRQSEGDGPFSIDAHTGLLQLERPLDFEQRRVHELVVQARDGGAHPELGSAFVTVHVRDANDNQPSMTVIFLSADGSPQVSEAAPPGQLVARISVSDPDDGDFAHVNVSLEGGEGHFALSTQDSVIYLVCVARRLDREERDAYNLRVTATDSGSPPLRAEAAFVLHVTDVNDNAPAF
notes: human Dchs1, EC1–EC4, aa43–472; Form used in ITC; also called Dachsous1(EC1–4); wild type Dchs1(EC1–4)

Kd [4]: 3.39 µM and 5.18 µM
Kd ([4]; mean): 4.29 µM
B5: Human Dchs1(EC1-4) (domain or fragment)
chain: DPQAGSLDLQIDEEQPAGTLIGDISAGLPAGTAAPLMYFISAQEGSGVGTDLAIDEHSGVVRTARVLDREQRDRYRFTAVTPDGATVEVTVRVADINDHAPAFPQARAALQVPEHTAFGTRYPLEPARDADAGRLGTQGYALSGDGAGETFRLETRPGPDGTPVPELVVTGELDRENRSHYMLQLEAYDGGSPPRRAQALLDVTLLDINDHAPAFNQSRYHAVVSESLAPGSPVLQVFASDADAGVNGAVTYEINRRQSEGDGPFSIDAHTGLLQLERPLDFEQRRVHELVVQARDGGAHPELGSAFVTVHVRDANDNQPSMTVIFLSADGSPQVSEAAPPGQLVARISVSDPDDGDFAHVNVSLEGGEGHFALSTQDSVIYLVCVARRLDREERDAYNLRVTATDSGSPPLRAEAAFVLHVTDVNDNAPAF

stoichiometry N [5]: 0.924 ± 0.00978 sites
B6: Human Dchs1(EC1-4) F79A (domain or fragment)
chain: DPQAGSLDLQIDEEQPAGTLIGDISAGLPAGTAAPLMYAISAQEGSGVGTDLAIDEHSGVVRTARVLDREQRDRYRFTAVTPDGATVEVTVRVADINDHAPAFPQARAALQVPEHTAFGTRYPLEPARDADAGRLGTQGYALSGDGAGETFRLETRPGPDGTPVPELVVTGELDRENRSHYMLQLEAYDGGSPPRRAQALLDVTLLDINDHAPAFNQSRYHAVVSESLAPGSPVLQVFASDADAGVNGAVTYEINRRQSEGDGPFSIDAHTGLLQLERPLDFEQRRVHELVVQARDGGAHPELGSAFVTVHVRDANDNQPSMTVIFLSADGSPQVSEAAPPGQLVARISVSDPDDGDFAHVNVSLEGGEGHFALSTQDSVIYLVCVARRLDREERDAYNLRVTATDSGSPPLRAEAAFVLHVTDVNDNAPAF
notes: human Dachsous1 (Dchs1), EC1-EC4, aa43-472, with F79A in EC1; also called Dchs1F79A(EC1-4); Dchs1F79A

stoichiometry N [5]: 1.02 ± 0.138 sites
B7: Human Dchs1(EC1-4) R297A (domain or fragment)
chain: DPQAGSLDLQIDEEQPAGTLIGDISAGLPAGTAAPLMYFISAQEGSGVGTDLAIDEHSGVVRTARVLDREQRDRYRFTAVTPDGATVEVTVRVADINDHAPAFPQARAALQVPEHTAFGTRYPLEPARDADAGRLGTQGYALSGDGAGETFRLETRPGPDGTPVPELVVTGELDRENRSHYMLQLEAYDGGSPPRRAQALLDVTLLDINDHAPAFNQSRYHAVVSESLAPGSPVLQVFASDADAGVNGAVTYEINRAQSEGDGPFSIDAHTGLLQLERPLDFEQRRVHELVVQARDGGAHPELGSAFVTVHVRDANDNQPSMTVIFLSADGSPQVSEAAPPGQLVARISVSDPDDGDFAHVNVSLEGGEGHFALSTQDSVIYLVCVARRLDREERDAYNLRVTATDSGSPPLRAEAAFVLHVTDVNDNAPAF
notes: human Dachsous1 (Dchs1), EC1-EC4, aa43-472, with R297A; also called Dchs1R297A(EC1-4); Dchs1R297A
